Experimental data taken from the nanobody polyreactivity screen of Harvey et al. (2022).

Assay: yeast display, Sf9 membrane polyspecificity reagent, FACS + sequencing; frameworks hold sequencing errors
Procedure, shortened: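 Galactose induction of a Saccharomyces cerevisiae BJ5465 synthetic nanobody display library ran 36–48 hours. The cells were then stained for 1 hour at 4 °C with 10% biotinylated, detergent-solubilized Sf9 membrane reagent, pulled down on streptavidin microbeads and FACS-sorted into low and high (top ~1%) gates on expression and reagent-binding fluorescence. Labels for polyreactivity follow the gate of origin.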

Sequence	polyreactivity (PSR sort gate)
QVQLVESGGGLVQAGGSLRLSCAASGFTFGNYVMGWYRQAPGKERELVAAISKRGTSTYYADSVKGRFTISRDNAKNTVYLQMNSLKPEDTAVYYCAADGVYSHKDGLWGQGTQVTVSS	high polyreactivity
QVQLVESGGGLVQAGGSLRLSCAASGFTFGPNTMGWYRQAAGKERELVATITWRGDGSTYYADSVKGRFTISRDNAKNTVYLQMNSLKPEDTAVYYCAAVIRPFSRRDMYYWGQGTQVTVSS	low polyreactivity
QVQLVESGGGLVQAGGSLRLSCAASGFTFGPYAMGWYRQAPGKERELVAGITWSGASTYYADSVKGRFTISRDNAKNSVYLQMNSLKPEDTAVYYCARYYRLGSRYDYWGQGTQVTVSS	low polyreactivity
QVQLVESGGGLVQAGGSLRLSCAASGFTFGPYDMGWYRQAPGKERELVAVIIGGDSTNYADSVKGRFTISRDNAKNSVYLQMNSLKPEDTAVYYCAADYIDRVGWMDYWGQGTQVTVSS	low polyreactivity
QVQLVESGGGLVQAGGSLRLSCAASGFTFGRYALGWYRQPPGKERELVAVISWSGVSTYYADSVKGRFTISRDNAKNTVYLQMNSLKPEDTAVYYCNKRSYHYPYGYDYWGQGTQVTVSS	high polyreactivity
QVQLVESGGGLVQAGGSLRLSCAASGFTFGRYAMGRYRPAPGKVRELVATITRTGSTNYADSVKGRFTISRDNAKNTVDLQMHSLKPEDTAVYYCNAVYSACRYVKYDYWGQGTQVTVSS	low polyreactivity
QVQLVESGGGLVQAGGSLRLSCAASGFTFGRYAMGWYRQAPGKERELVAAIATRGGSTYYADSVKGRFTISRDNAMNTVYLQMNSLKPEDTAVYYCAAGGYYVRYDYWGQGTQVTVSS	high polyreactivity
QVQLVESGGGLVQAGGSLRLSCAASGFTFGRYAMGWYRQAPGKERELVAAISYSGGSTYYADSVKGRFTISRDNAKNTVYLQMNSLKPEDTAVYYCAARDSYWSVYYWGQGTQVTVSS	high polyreactivity
QVQLVESGGGLVQAGGSLRLSCAASGFTFGRYAMGWYRQAPGKERELVAAITRGSGGSYYADSVKGRFTISRDIAKNTVYLQMNSLKPDDTAVYYCATGSRSRGALRYAHFDYWGQGTQVTVSS	high polyreactivity
QVQLVESGGGLVQAGGSLRLSCAASGFTFGSNAMGWYRPAAGKERELVASITTRGGSTYYADSVKGRFTISRDNAKNTVYLQMNSLKPEDTAVYYCAARARYPNWTYYYWGQGTQVTVSS	high polyreactivity
QVQLVESGGGLVQAGGSLRLSCAASGFTFGSNAMGWYRQAPGKERELVAAISSRGGRTYYADSVKGRFTISRDNAKNTVYLQMNSLKPEDTAVYYCNADATVAWREQEYEYWGQGTQVTVSS	high polyreactivity
QVQLVESGGGLVQAGGSLRLSCAASGFTFGSNAMGWYRQAPGKERELVAAISWSGGRTYYADSVKGRFTISRDNAKNTVYLQMNILKPEDTAVFYCNKQYVKPWYRGYYYWGQGTQVTVSS	high polyreactivity
QVQLVESGGGLVQAGGSLRLSCAASGFTFGSYAKGWYRQAPGKERELVAAIRASGGRTYYADSVKGRFTISRDNAKNTVFLQMNSLKPEDTAVYYCAADTGGNPKYDYWGQGTQVTVSS	high polyreactivity
QVQLVESGGGLVQAGGSLRLSCAASGFTFGSYAMGWYRQAPGKDRELVARISSDGSTNYADSVKGRFTISRDYAKNTVYLQMNSLKPEDTAVYYCAVRHRYTRAYWGRDYWGQGTQVTVSS	low polyreactivity
QVQLVESGGGLVQAGGSLRLSCAASGFTFGSYAMGWYRQAPGKEREFVAAITRSGGRTYYADSVKGRFTISRDNAKNTVYLQMNSLKPEDTAVSYCNAYRSALYTPEYDYWGQGTQVNVSS	high polyreactivity
QVQLVESGGGLVQAGGSLRLSCAASGFTFGSYAMGWYRQAPGKERELVAAITSRGGSTYYADSVKGRFTISRDNAKNTVYLQMNSLKPEDTAVYYCNAVLPVYRTNMDYWGQGTQVTVSS	high polyreactivity
QVQLVESGGGLVQAGGSLRLSCAASGFTFGSYAMGWYRQAPGKERELVAAITWSGGSTYYADSVKGRFTISRDNAKNTVYLQMNSLKPEDTAVYYCNAEIRYYGYDYWGQGTQVTVSS	high polyreactivity
QVQLVESGGGLVQAGGSLRLSCAASGFTFGSYAMGWYRQAPGKERELVAASTRRGDNTYYADSVKGRFTISRDNAKNTVYLQMNSLKPEDTAVYYCNVGLRSVVSGEYWGHGTQVTVSS	high polyreactivity
QVQLVESGGGLVQAGGSLRLSCAASGFTFGSYAMGWYRQATGKERELVAVITRSGRTNYADSVKGRFTITRDNAKNTVFLQMNSMKPEDTAVYYCNADDVDDEVSPDLTEMDNWGLGTQVTVSS	low polyreactivity
QVQLVESGGGLVQAGGSLRLSCAASGFTFGTYAMGWYRQAPGKERELVAAISKRGGSTYYADSVKGRFTISRDNAKNTVYLQMNSLKPEDTAVYYCATGSYTTYGYGYWGQGTQVTVSS	high polyreactivity
QVQLVESGGGLVQAGGSLRLSCAASGFTFGVYAKGWYRQEPGKEREMVAAISSRRGSTYYADSVKGRFTISRDNAKNTVYLQMNSLKPEDTAVYYCAKRLGNTVGKEDYWGQGTQVTVTS	low polyreactivity
QVQLVESGGGLVQAGGSLRLSCAASGFTFGVYALGGYRQAPGKEREFVAAISRSGSSTYYADSVKGRFTISRDNAKNTVYLQMNSLKPEDTAVYYCAKRSGNRYSFDYWGQGTQVTVSS	high polyreactivity

Sequence	polyreactivity (PSR sort gate)
QVQLVESGGGLVQAGGSLRLSCAASGFTFGWYAMGWYRQAPGKEREFVATITYSGGSTYYADSVKGRFTISRDNAKNTVYLQMNSLKPEDTAVYYCAAARYWYRRFDYWGQGTQVTVSS	high polyreactivity
QVQLVESGGGLVQAGGSLRLSCAASGFTFGYYAMGWYRQAPGKERELVAAISRSGGRTYYADSVKGRFTISRDNAKNTVYLEMNSLKPEDTAVYYCNAVIHGWTLDYEYWGQGTQVTVSS	high polyreactivity
QVQLVESGGGLVQAGGSLRLSCAASGFTFGYYAMGWYRQAPGKERELVAAISSSGGSTYYADSVKGRFTISRDNAKNTVYLQMNSLKPEDTAVYYCAVVVFSRVYRYFTSDYWGQGTQVTVSS	high polyreactivity
QVQLVESGGGLVQAGGSLRLSCAASGFTFGYYAMGWYRQAPGKERELVAAITYDGDITYYADSVKGRFTISRDNAKNTVYLQMNSLKPEDTAVYYCNRDVLTFNYDYWGQGTQVTVSS	low polyreactivity
QVQLVESGGGLVQAGGSLRLSCAASGFTFGYYAMGWYRQAPGKERELVAAITYDGDITYYADSVKGRFTISRDNAKNTVYLQMNSLKPEVTAVYYCNRDVLTFNYDYWGQGTQVTVSS	low polyreactivity
QVQLVESGGGLVQAGGSLRLSCAASGFTFGYYAMGWYRQAPGKERELVATIDRGGGTSYADSVKGRFTISRDNAKNTVYLQMNSLKPEDTAVYYCNRACYGAKARRYRSYWGQGTQVTVSS	high polyreactivity
QVQLVESGGGLVQAGGSLRLSCAASGFTFGYYGMGWSRQAPGKERELVAGISSSGSRTYYADSVKGRFTISRDNAKNTVYLQMNSLKPEDTAVYYCNKYYSGKSYTGEDYWGQGTQVTVSS	high polyreactivity
QVQLVESGGGLVQAGGSLRLSCAASGFTFGYYTMGWYRQAPGKERELVAAITWRGTTYYADSVKGRFTISRDNAKNTVYLQMNSLKPEDTAVYYCATVVLLRIWGGYWGQGTQVTVSS	high polyreactivity
QVQLVESGGGLVQAGGSLRLSCAASGFTFGYYTMGWYRQAPGKERELVASISRTGGRTYADSVKGRFTISRDNAKNTVYLQMNSLKPEDTAVYYCAAYRQGSAYDYWGQGTQVTVSS	high polyreactivity
QVQLVESGGGLVQAGGSLRLSCAASGFTFGYYVMGWYRQAPGKERELVAAITSGGRTKYADSVKGRFTISRDNAKNTVYLQMNSLKPEDTAVYYCAAKSRVHVDYWGQGTQVTVSS	high polyreactivity
QVQLVESGGGLVQAGGSLRLSCAASGFTFHFYAMGWYRQAPGKEREWVAAISWRGSSTYYADSVKGRFTISRDNAKNTVYLQMNSLKPEDTAVYYWNALYYYPYDYWGQGTQVTVSS	high polyreactivity
QVQLVESGGGLVQAGGSLRLSCAASGFTFHSYAMGWYIQAPGKERELVAAISARGGSTYYADSVKGRFTISRDNAKNTVYLQMNSLKPEDTAVYYCAAYSYQVRFYYWGHGTQVTVSS	high polyreactivity
QVQLVESGGGLVQAGGSLRLSCAASGFTFHSYAMGWYRQAPGKERELVAAISYSGGSTYYADSVKGRFTISRDNAKNTVYLQMHSLKPEDTAVYYCAGLRYIYGYANDYWGQGTQVTVSS	low polyreactivity
QVQLVESGGGLVQAGGSLRLSCAASGFTFHYYAMGRYRQAPGKERELVAAISWDTGSTYYADSVKGRFTISRDNAKNTVYLQMNSLKPEDTAVYYCNAQFYWYHGEWVFYGLSDDFDYWGQGTQVTVSS	high polyreactivity
QVQLVESGGGLVQAGGSLRLSCAASGFTFHYYTMAWYRQAPGKEREFVAAMSKSGGRTYYADSVKGRFTISRDKAKNTVYLQMNSLKPEDTAVYYCSTVGYWRNRHDYWGQGTQVTVSS	high polyreactivity
QVQLVESGGGLVQAGGSLRLSCAASGFTFHYYVMGWYRQAPGKERELVAAINAGGVSTYYADSVKGRFTISRDNAKNTVYLQMNSLKPEDTAVYYCNARVRVRLGRNWSSYYYWGQGTQVTVSS	high polyreactivity
QVQLVESGGGLVQAGGSLRLSCAASGFTFIDYTMGWYRQAPGKERELVARITDTGSTNYADSVKGRFTISRDNAKNTVYLQMNRLKPEDTAVYYCNKDDRNDRTIPGYDPEYDYWGQGTQVTVSS	low polyreactivity
QVQLVESGGGLVQAGGSLRLSCAASGFTFIRNAMGWYRQAPGKERELVAVITRSGGSTYYADSVKGRFTISRDNAKNTVYLQMNSLKPQDTAVYYCAATLRYSPRRRYDYWGQGTQVTVSS	high polyreactivity
QVQLVESGGGLVQAGGSLRLSCAASGFTFIRYAMGWYIQAPGKERELVASISNRGGRTYYADSVKGRFTISRDNAKNTFYLQMNSLKPEDTAVYYCAAKFSSYWSRFGYWGQGTQVTVSS	high polyreactivity
QVQLVESGGGLVQAGGSLRLSCAASGFTFIRYAMGWYRQAPGKEREFVAAISWRVGITYYADSVKGRFTMSRDNAKNTVYLQMNSLKPEDTAVYYCARDYRNPPFAYEYWGQGTQVTVSS	low polyreactivity
QVQLVESGGGLVQAGGSLRLSCAASGFTFIRYAMGWYRQAPGKERELVATITRSGGSTYYADSVKGRFTISRDNAKNTVYLQMNSLKPEDTAVYYCAKRGTLGSYYYWGQGTQVTVSS	high polyreactivity
